Experimental data taken from US20190169306A1 (UNIVERSITY OF SOUTHAMPTON, published 2019).

Target: T1, human CD27 (human, UniProt P26842 20-260)
T1 sequence (looked up): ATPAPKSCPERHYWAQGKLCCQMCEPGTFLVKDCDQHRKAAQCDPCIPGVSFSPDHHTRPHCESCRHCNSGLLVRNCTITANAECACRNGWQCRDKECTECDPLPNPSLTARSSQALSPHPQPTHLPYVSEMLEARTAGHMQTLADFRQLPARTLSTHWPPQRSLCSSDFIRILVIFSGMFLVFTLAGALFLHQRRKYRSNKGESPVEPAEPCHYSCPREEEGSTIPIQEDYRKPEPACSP
Assay: cell-based or functional assay

B1: varlilumab (anti-human CD27 mAb) (antibody, V domains shown)
VH: QVQLVESGGGVVQPGRSLRLSCAASGFTFSSYDMHWVRQAPGKGLEWVAVIWYDGSNKYYADSVKGRFTISRDNSKNTLYLQMNSLRAEDTAVYYCARGSGNWGFFDYWGQGTLVTVSS
VL: DIQMTQSPSSLSASVGDRVTITCRASQGISRWLAWYQQKPEKAPKSLIYAASSLQSGVPSRFSGSGSGTDFTLTISSLQPEDFATYYCQQYNTYPRTFGQGTKVEIK
What does the source list for B1?
level of CD14 on monocytes in human PBMC cultures after 48 hours (flow cytometry): 2 fold; monocyte number in human PBMC cultures after 48 hours with 5 µg/mL mAb (flow cytometry): 3 fold
